According to the RNAGym collection of RNA variant scans (doi:10.7554/elife.80360):

B1: Hairpin Ribozyme (parent)
chain: GUCCUCUUUCACGUGCGCGUGAAAGAGAGAAGUGAACCAGAGAAACACACGUUGUGGUAUAUUACCUGGUA

Variants of: B1
Experiment: self-cleavage, relative activity (ratio to wild type); higher = more cleavage; co-transcriptional

Variant | self-cleavage
GUCCUCUUUCACGUGCGCGUGGGAGAGAGAAGUGAACCAGAGAAACACACGUUGUGGUAUAUUACCUGGUA [A22G A23G] | 0.945
GUCCUCUUUCACGUGCGCGUGCAAGAGAGAAGUGAGCCAGAGAAACACACGUUGUGGUAUAUUACCUGGUA [A22C A36G] | 1.05
GUCCUCUUUCACGUGCGCGUGCAAGAGAGAAGUGAACCAGAGAAACACACGUUGUGGUAUAUUACCUGGUC [A22C A71C] | 1.26
GUCCUCUUUCACGUGCGCGUUAAAGAGAGAAGUGAACCAGAGAAACACACGUUGUGGUAUAUUACCUGGGA [G21U U70G] | 0.687
GUCCUCUUUCACGUGCGCGUUAAAGAGAGAAGUGAACCAGAGAAACACACGUUGUGGUAUAUUACCUGGAA [G21U U70A] | 0.791
GUCCUCUUUCACGUGCGCGUGCAAGAGGGAAGUGAACCAGAGAAACACACGUUGUGGUAUAUUACCUGGUA [A22C A28G] | 0.807
GUCCUCUUUCACGUGCGCGUGCAAGAGAGAUGUGAACCAGAGAAACACACGUUGUGGUAUAUUACCUGGUA [A22C A31U] | 0.108
GUCCUCUUUCACGUGCGCGUGCAAGAGAGACGUGAACCAGAGAAACACACGUUGUGGUAUAUUACCUGGUA [A22C A31C] | 0.16
GUCCUCUUUCACGUGCGCGUGCAAGAGAGAGGUGAACCAGAGAAACACACGUUGUGGUAUAUUACCUGGUA [A22C A31G] | 0.642
GUCCUCUUUCACGUGCGCGUGGAAGAGAGAAGUGAACCAGAGAACCACACGUUGUGGUAUAUUACCUGGUA [A22G A45C] | 0.13
GUCCUCUUUCACGUGCGCGUGGAAGAGAGAAGUGAACCAGAGAAACACACGUUGUGGUAUAUUAACUGGUA [A22G C65A] | 0.631
GUCCUCUUUCACGUGCGCGUGCAAGACAGAAGUGAACCAGAGAAACACACGUUGUGGUAUAUUACCUGGUA [A22C G27C] | 0.123
GUCCUCUUUCACGUGCGCGUGCAAGAGAGAAGUGGACCAGAGAAACACACGUUGUGGUAUAUUACCUGGUA [A22C A35G] | 0.679
GUCCUCUUUCACGUGCGCGUGCAAGAGAGAAGUGCACCAGAGAAACACACGUUGUGGUAUAUUACCUGGUA [A22C A35C] | 0.895
GUCCUCUUUCACGUGCGCGUGCAAGAGAGAAGUGUACCAGAGAAACACACGUUGUGGUAUAUUACCUGGUA [A22C A35U] | 0.746
GUCCUCUUUCACGUGCGCGUGCAAGAGAGAAGUGAACCAGAGAAACACACGUUGAGGUAUAUUACCUGGUA [A22C U55A] | 0.217
GUCCUCUUUCACGUGCGCGUUAAAGAGAGAAGGGAACCAGAGAAACACACGUUGUGGUAUAUUACCUGGUA [G21U U33G] | 0.127
GUCCUCUUUCACGUGCGCGUGGAAGAGAGAAGUGAACCAGAGAAACACACGUUGUGGUGUAUUACCUGGUA [A22G A59G] | 0.212
GUCCUCUUUCACGUGCGCGUGCAAGAGAAAAGUGAACCAGAGAAACACACGUUGUGGUAUAUUACCUGGUA [A22C G29A] | 0.0644
GUCCUCUUUCACGUGCGCGUGCAAGAGAUAAGUGAACCAGAGAAACACACGUUGUGGUAUAUUACCUGGUA [A22C G29U] | 0.131
GUCCUCUUUCACGUGCGCGUUAAAGAGAGAAGUGAACCAGAGAAACACACGUUGUGGUAUAUUACCGGGUA [G21U U67G] | 0.36
GUCCUCUUUCACGUGCGCGUUAAAGAGAGAAGUGAACCAGAGAAACACACGGUGUGGUAUAUUACCUGGUA [G21U U52G] | 0.661
GUCCUCUUUCACGUGCGCGUGGAAGACAGAAGUGAACCAGAGAAACACACGUUGUGGUAUAUUACCUGGUA [A22G G27C] | 0.161
GUCCUCUUUCACGUGCGCGUGCAAGAGAGAAGUGAACCAGAGAAACACACGUUGUGGUAUACUACCUGGUA [A22C U62C] | 0.196
GUCCUCUUUCACGUGCGCGUGCAAGAGAGAAGUGAACCAAAGAAACACACGUUGUGGUAUAUUACCUGGUA [A22C G40A] | 0.242
GUCCUCUUUCACGUGCGCGUGGAAGAGAGAAGUGAUCCAGAGAAACACACGUUGUGGUAUAUUACCUGGUA [A22G A36U] | 0.423

Variant | self-cleavage
GUCCUCUUUCACGUGCGCGUGGAAGAGAGAAGUGACCCAGAGAAACACACGUUGUGGUAUAUUACCUGGUA [A22G A36C] | 0.515
GUCCUCUUUCACGUGCGCGUGCAAGAGAGAAGUGAACCAGAGAAACACACGUUGUGGGAUAUUACCUGGUA [A22C U58G] | 0.575
GUCCUCUUUCACGUGCGCGUGGAAGAGAGAAGUGAACCAGAGAAACACACGUUGUGGUAUAUUACGUGGUA [A22G C66G] | 0.302
GUCCUCUUUCACGUGCGCGUGCAAGAGAGAAGUGAACCUGAGAAACACACGUUGUGGUAUAUUACCUGGUA [A22C A39U] | 0.461
GUCCUCUUUCACGUGCGCGUGCAAGAGAGAAGUGAACCAGAGAAACACAGGUUGUGGUAUAUUACCUGGUA [A22C C50G] | 0.126
GUCCUCUUUCACGUGCGCGUGCAAGAGAGAAGUGAACCAGAGAAACACAAGUUGUGGUAUAUUACCUGGUA [A22C C50A] | 0.22
GUCCUCUUUCACGUGCGCGUGGAAGAGAGAAGUGAACCAGAGAAACUCACGUUGUGGUAUAUUACCUGGUA [A22G A47U] | 0.102
GUCCUCUUUCACGUGCGCGUGGAAGGGAGAAGUGAACCAGAGAAACACACGUUGUGGUAUAUUACCUGGUA [A22G A26G] | 1.09
GUCCUCUUUCACGUGCGCGUGCAAGAGAGAAGUGAACCAGAGAAGCACACGUUGUGGUAUAUUACCUGGUA [A22C A45G] | 0.15
GUCCUCUUUCACGUGCGCGUGCAAGAGAGAAGUGAACCAGAGAAACACGCGUUGUGGUAUAUUACCUGGUA [A22C A49G] | 0.512
GUCCUCUUUCACGUGCGCGUGGAAGAGAGAAGUGAACCAGAGAAACACGCGUUGUGGUAUAUUACCUGGUA [A22G A49G] | 0.345
GUCCUCUUUCACGUGCGCGUGGAAGAGAGAAGUGAACCAGAGAAACACCCGUUGUGGUAUAUUACCUGGUA [A22G A49C] | 0.164
GUCCUCUUUCACGUGCGCGUUAAAGAGAGAAGUGAACCAGAGAAACACACGUUGUGGUAUACUACCUGGUA [G21U U62C] | 0.272
GUCCUCUUUCACGUGCGCGUGCAAGAGAGAAGUGAACCAGAGAAACACACGUUGUAGUAUAUUACCUGGUA [A22C G56A] | 0.165
GUCCUCUUUCACGUGCGCGUGGAAGAGAGAAGUGAACCAGAGAAACACAAGUUGUGGUAUAUUACCUGGUA [A22G C50A] | 0.227
GUCCUCUUUCACGUGCGCGUGGAAGAGCGAAGUGAACCAGAGAAACACACGUUGUGGUAUAUUACCUGGUA [A22G A28C] | 0.689
GUCCUCUUUCACGUGCGCGUGGAAGAGUGAAGUGAACCAGAGAAACACACGUUGUGGUAUAUUACCUGGUA [A22G A28U] | 0.673
GUCCUCUUUCACGUGCGCGUGCAAGAGAGAAGUGAACCAGAGAAACACACCUUGUGGUAUAUUACCUGGUA [A22C G51C] | 0.769
GUCCUCUUUCACGUGCGCGUGCAAGAGAGAAGUGAACCAGAGAAACACACAUUGUGGUAUAUUACCUGGUA [A22C G51A] | 0.93
GUCCUCUUUCACGUGCGCGUGCAAGAGAGAAGUGAACCAGAGGAACACACGUUGUGGUAUAUUACCUGGUA [A22C A43G] | 0.249
GUCCUCUUUCACGUGCGCGUGGAAGAGAGAAGUGAACCAGAGAAACACACGUUGUGGUAUAUUACCUGGUA [A22G] | 0.871
GUCCUCUUUCACGUGCGCGUGCAAGAGAGAAGUGAACCAGAGAAACACACGUUGUGGUAUAUUACCUGGUA [A22C] | 0.848
GUCCUCUUUCACGUGCGCGUGCAAGAGAGAAGUGAACCAGAGAAACACACGUUGUGGUAUAUUACCUGCUA [A22C G69C] | 0.366
GUCCUCUUUCACGUGCGCGUGCAAGAGAGAAGUGAACCAGAGAGACACACGUUGUGGUAUAUUACCUGGUA [A22C A44G] | 0.135
GUCCUCUUUCACGUGCGCGUGCAAGAGAGAAGUGAACCAGAGAAACACACGUUGUGGUAUUUUACCUGGUA [A22C A61U] | 0.204
GUCCUCUUUCACGUGCGCGUGCAAGAGAGAAGUGAACCAGAGAAACACACGUUGUGGUAUCUUACCUGGUA [A22C A61C] | 0.3

Variant | self-cleavage
GUCCUCUUUCACGUGCGCGUGCAAGAGAGAAGUGAACCAGUGAAACACACGUUGUGGUAUAUUACCUGGUA [A22C A41U] | 1.06
GUCCUCUUUCACGUGCGCGUGGAAGAGAGAAGUGAACCAGAGAAACACACGUUGUGGUAUGUUACCUGGUA [A22G A61G] | 0.285
GUCCUCUUUCACGUGCGCGUGCAAGGGAGAAGUGAACCAGAGAAACACACGUUGUGGUAUAUUACCUGGUA [A22C A26G] | 0.557
GUCCUCUUUCACGUGCGCGUGCAAGAGAGAAGUGAAACAGAGAAACACACGUUGUGGUAUAUUACCUGGUA [A22C C37A] | 0.25
GUCCUCUUUCACGUGCGCGUGCAAGAGAGAAGUGAAGCAGAGAAACACACGUUGUGGUAUAUUACCUGGUA [A22C C37G] | 0.368
GUCCUCUUUCACGUGCGCGUGCAAGAGAGAAGUGAAUCAGAGAAACACACGUUGUGGUAUAUUACCUGGUA [A22C C37U] | 0.435
GUCCUCUUUCACGUGCGCGUGCAAGAGAGAAGUGAACCAGAGAAACACACGUUGUGGUAUAUUACCGGGUA [A22C U67G] | 0.204
GUCCUCUUUCACGUGCGCGUUAAAGAGAGAAGUGAACCAGAGAAACACACGUUGGGGUAUAUUACCUGGUA [G21U U55G] | 0.2
GUCCUCUUUCACGUGCGCGUGGAAGAGAGAAGUGAACCAGAGAAACACACGUUGUGGUAUAUUCCCUGGUA [A22G A64C] | 0.22
GUCCUCUUUCACGUGCGCGUGCAAGAGAGAAGUGAACCAGAGAAACACACGUUGUGGUAUAUAACCUGGUA [A22C U63A] | 0.288
GUCCUCUUUCACGUGCGCGUGCACGAGAGAAGUGAACCAGAGAAACACACGUUGUGGUAUAUUACCUGGUA [A22C A24C] | 0.233
GUCCUCUUUCACGUGCGCGUGGAAGAGAGAAGUGCACCAGAGAAACACACGUUGUGGUAUAUUACCUGGUA [A22G A35C] | 0.715
GUCCUCUUUCACGUGCGCGUGCAAGAGAGAAGUGAACCAGAGAAACACACGAUGUGGUAUAUUACCUGGUA [A22C U52A] | 0.821
GUCCUCUUUCACGUGCGCGUGGAAGAGAGAAGUGAACCAGAGCAACACACGUUGUGGUAUAUUACCUGGUA [A22G A43C] | 0.158
GUCCUCUUUCACGUGCGCGUGGAAGAGAGAAGUGAACCAGAGUAACACACGUUGUGGUAUAUUACCUGGUA [A22G A43U] | 0.0762
GUCCUCUUUCACGUGCGCGUGGAAGAGAGAAGUGAACCAGAGGAACACACGUUGUGGUAUAUUACCUGGUA [A22G A43G] | 0.121
GUCCUCUUUCACGUGCGCGUGGAAGAGAGAAGUGAACCCGAGAAACACACGUUGUGGUAUAUUACCUGGUA [A22G A39C] | 0.475
GUCCUCUUUCACGUGCGCGUGGAAGAGAGAAGUGAACCUGAGAAACACACGUUGUGGUAUAUUACCUGGUA [A22G A39U] | 0.42
GUCCUCUUUCACGUGCGCGUGCAAGAGAGAAGGGAACCAGAGAAACACACGUUGUGGUAUAUUACCUGGUA [A22C U33G] | 0.0647
GUCCUCUUUCACGUGCGCGUGCAAGAGAGAAGUGAACCAGAGAAACACACGUUGUGCUAUAUUACCUGGUA [A22C G57C] | 0.117
GUCCUCUUUCACGUGCGCGUGCAAGAGAGAAGUGAACCAGAGAAACACACGUUGUGUUAUAUUACCUGGUA [A22C G57U] | 0.162
GUCCUCUUUCACGUGCGCGUGGAAGAGAGAAGUGAACCAGAGAAACACACGUUGUGGUAUAUUACCUGGUU [A22G A71U] | 0.702
GUCCUCUUUCACGUGCGCGUGGAAGAGAGAAGUGAACCAGAGAAACACACGUUGUGGUAUAUUACCUGGUG [A22G A71G] | 0.907
GUCCUCUUUCACGUGCGCGUGCAAGAGAGAAGUGAACAAGAGAAACACACGUUGUGGUAUAUUACCUGGUA [A22C C38A] | 0.124
